{"source": "paper PMC11472053", "about": "“Structural basis of DNA recognition by BEN domain proteins reveals a role for oligomerization in unmethylated DNA selection by BANP” (Nucleic Acids Research, 2024)", "key": {"BANP BEN WT (human)": {"biological_target": "T1, BANP BEN WT (human) (UniProt Q8N9N5)", "T1 sequence": "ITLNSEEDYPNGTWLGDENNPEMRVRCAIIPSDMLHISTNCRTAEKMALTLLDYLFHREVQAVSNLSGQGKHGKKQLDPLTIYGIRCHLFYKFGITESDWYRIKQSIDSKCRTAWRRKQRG", "assay": "ITC", "conditions": "5-methyl-C at positions 5 and 7 of each strand (fully methylated); ITC: 20 mM Tris pH 7.5, 200 mM NaCl, 2 mM beta-mercaptoethanol, 20 C; EMSA: 20 mM Tris pH 7.0, 200 mM NaCl, 2 mM DTT, 4 C, 1.2% agarose in TAE"}, "NACC1 BEN WT [1]": {"biological_target": "T2, NACC1 BEN WT (human, UniProt Q96RE7 341-477)", "T2 sequence": "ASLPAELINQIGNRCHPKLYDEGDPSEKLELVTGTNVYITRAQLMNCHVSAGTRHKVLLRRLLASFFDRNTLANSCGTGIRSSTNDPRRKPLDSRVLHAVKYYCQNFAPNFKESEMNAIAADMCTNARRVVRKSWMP", "assay": "crystal structure; 2.3 A; PDB assignment from column order; ITC: 20 mM Tris pH 7.5, 200 mM NaCl, 2 mM beta-mercaptoethanol, 20 C; EMSA: 20 mM Tris pH 7.0, 200 mM NaCl, 2 mM DTT, 4 C, 1.2% agarose in TAE", "conditions": "protein: recombinant; tags: His-SUMO or His-MBP, cleaved; 10 bp, 5' overhang 1 nt (T) each strand"}, "BANP BEN WT [2]": {"biological_target": "T3, BANP BEN WT (human, UniProt Q8N9N5 205-325)", "T3 sequence": "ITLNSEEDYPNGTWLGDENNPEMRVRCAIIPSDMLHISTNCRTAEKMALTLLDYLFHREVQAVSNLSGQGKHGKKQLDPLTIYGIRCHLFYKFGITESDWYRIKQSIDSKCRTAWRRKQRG", "assay": "crystal structure; 2.6 A; PDB assignment from column order; ITC: 20 mM Tris pH 7.5, 200 mM NaCl, 2 mM beta-mercaptoethanol, 20 C; EMSA: 20 mM Tris pH 7.0, 200 mM NaCl, 2 mM DTT, 4 C, 1.2% agarose in TAE", "conditions": "protein: recombinant; tags: His-SUMO or His-MBP, cleaved; chain copies: 2; 12 bp, 5' overhang 1 nt (C) each strand"}, "BANP CC-BEN (ΔDBD)": {"biological_target": "T4, BANP CC-BEN (ΔDBD) (human, UniProt Q8N9N5 1-360)", "T4 sequence": "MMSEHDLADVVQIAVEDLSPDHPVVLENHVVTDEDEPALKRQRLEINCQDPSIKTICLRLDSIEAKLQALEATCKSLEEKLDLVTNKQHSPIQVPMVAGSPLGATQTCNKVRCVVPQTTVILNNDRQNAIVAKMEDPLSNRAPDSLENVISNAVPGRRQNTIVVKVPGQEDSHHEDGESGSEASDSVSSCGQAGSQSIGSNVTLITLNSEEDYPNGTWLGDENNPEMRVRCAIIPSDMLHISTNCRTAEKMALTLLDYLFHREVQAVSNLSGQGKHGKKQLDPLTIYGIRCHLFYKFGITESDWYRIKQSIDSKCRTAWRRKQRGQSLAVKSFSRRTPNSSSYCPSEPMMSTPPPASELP", "assay": "ITC; ITC: 20 mM Tris pH 7.5, 200 mM NaCl, 2 mM beta-mercaptoethanol, 20 C; EMSA: 20 mM Tris pH 7.0, 200 mM NaCl, 2 mM DTT, 4 C, 1.2% agarose in TAE", "conditions": "protein: recombinant; tags: His-SUMO or His-MBP, cleaved; blunt, self-complementary"}, "BANP full-length WT": {"biological_target": "T5, BANP full-length WT (human, UniProt Q8N9N5 1-519)", "T5 sequence": "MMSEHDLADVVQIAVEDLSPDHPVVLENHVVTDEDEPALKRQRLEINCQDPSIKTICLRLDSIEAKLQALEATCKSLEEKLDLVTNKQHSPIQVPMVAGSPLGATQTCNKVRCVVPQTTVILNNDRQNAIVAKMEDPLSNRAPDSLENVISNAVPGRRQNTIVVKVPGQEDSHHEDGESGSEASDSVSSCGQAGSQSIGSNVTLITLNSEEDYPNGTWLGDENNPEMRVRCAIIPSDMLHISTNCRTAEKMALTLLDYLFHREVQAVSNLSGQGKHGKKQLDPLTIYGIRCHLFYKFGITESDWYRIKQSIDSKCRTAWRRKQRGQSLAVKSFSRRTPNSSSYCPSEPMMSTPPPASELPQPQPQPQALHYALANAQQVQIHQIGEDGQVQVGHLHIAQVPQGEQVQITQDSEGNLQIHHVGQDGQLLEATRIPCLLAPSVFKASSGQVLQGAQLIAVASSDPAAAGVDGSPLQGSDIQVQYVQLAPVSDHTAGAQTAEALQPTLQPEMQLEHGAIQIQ", "assay": "ITC; ITC: 20 mM Tris pH 7.5, 200 mM NaCl, 2 mM beta-mercaptoethanol, 20 C; EMSA: 20 mM Tris pH 7.0, 200 mM NaCl, 2 mM DTT, 4 C, 1.2% agarose in TAE", "conditions": "protein: recombinant; tags: His-SUMO or His-MBP, cleaved; chain copies: 4; blunt, self-complementary"}, "BANP ΔCC": {"biological_target": "T6, BANP ΔCC (human, UniProt Q8N9N5 90-519)", "T6 sequence": "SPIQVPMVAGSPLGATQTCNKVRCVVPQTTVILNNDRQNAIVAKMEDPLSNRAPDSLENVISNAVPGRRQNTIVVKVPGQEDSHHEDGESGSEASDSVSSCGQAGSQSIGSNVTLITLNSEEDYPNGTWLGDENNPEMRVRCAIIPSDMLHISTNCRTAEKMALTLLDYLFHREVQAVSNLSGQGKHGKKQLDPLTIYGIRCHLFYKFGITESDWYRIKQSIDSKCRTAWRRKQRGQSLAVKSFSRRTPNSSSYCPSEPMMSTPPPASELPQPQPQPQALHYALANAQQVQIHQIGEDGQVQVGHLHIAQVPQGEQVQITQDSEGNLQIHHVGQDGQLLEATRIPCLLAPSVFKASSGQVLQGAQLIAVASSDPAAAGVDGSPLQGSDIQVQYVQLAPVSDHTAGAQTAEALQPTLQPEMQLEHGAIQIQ", "assay": "ITC; ITC: 20 mM Tris pH 7.5, 200 mM NaCl, 2 mM beta-mercaptoethanol, 20 C; EMSA: 20 mM Tris pH 7.0, 200 mM NaCl, 2 mM DTT, 4 C, 1.2% agarose in TAE", "conditions": "protein: recombinant; tags: His-SUMO or His-MBP, cleaved; blunt, self-complementary"}, "BANP BEN-DBD": {"biological_target": "T7, BANP BEN-DBD (human, UniProt Q8N9N5 205-519)", "T7 sequence": "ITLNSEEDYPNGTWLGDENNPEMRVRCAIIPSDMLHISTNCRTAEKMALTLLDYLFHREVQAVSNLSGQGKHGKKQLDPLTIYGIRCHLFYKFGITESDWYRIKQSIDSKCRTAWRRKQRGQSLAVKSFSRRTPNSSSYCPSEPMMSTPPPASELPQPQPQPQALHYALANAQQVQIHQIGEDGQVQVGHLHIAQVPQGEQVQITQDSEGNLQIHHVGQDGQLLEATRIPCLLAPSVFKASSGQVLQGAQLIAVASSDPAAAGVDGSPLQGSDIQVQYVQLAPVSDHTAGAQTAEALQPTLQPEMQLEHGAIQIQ", "assay": "ITC; ITC: 20 mM Tris pH 7.5, 200 mM NaCl, 2 mM beta-mercaptoethanol, 20 C; EMSA: 20 mM Tris pH 7.0, 200 mM NaCl, 2 mM DTT, 4 C, 1.2% agarose in TAE", "conditions": "protein: recombinant; tags: His-SUMO or His-MBP, cleaved; blunt, self-complementary"}, "BANP BEN WT [3]": {"biological_target": "T3, BANP BEN WT", "assay": "EMSA; ITC: 20 mM Tris pH 7.5, 200 mM NaCl, 2 mM beta-mercaptoethanol, 20 C; EMSA: 20 mM Tris pH 7.0, 200 mM NaCl, 2 mM DTT, 4 C, 1.2% agarose in TAE", "conditions": "protein: recombinant; tags: His-SUMO or His-MBP, cleaved; chain copies: 2; blunt"}, "NACC1 BEN WT [4]": {"biological_target": "T2, NACC1 BEN WT", "assay": "EMSA; ITC: 20 mM Tris pH 7.5, 200 mM NaCl, 2 mM beta-mercaptoethanol, 20 C; EMSA: 20 mM Tris pH 7.0, 200 mM NaCl, 2 mM DTT, 4 C, 1.2% agarose in TAE", "conditions": "protein: recombinant; tags: His-SUMO or His-MBP, cleaved; blunt"}, "[5]": {"biological_target": "the molecule itself", "assay": "cross-linking; purified full-length BANP in 20 mM HEPES pH 7.5, 200 mM NaCl, 2 mM DTT; 0.06% glutaraldehyde, on ice 10 min, quenched with Tris; then Superdex 200 10/300 GL and SDS-PAGE of the fractions"}}, "data": [{"molecule": "ATCTCGCGAGAT (double strand) [12-mCGmCG]", "values": [{"measurement": "Kd", "setting": "BANP BEN WT (human)", "value": 5.7, "unit": "µM"}]}, {"molecule": "NACC1 crystal DNA (dsDNA) DNA 1: TTTACATGTAA DNA 2: TTTACATGTAA", "values": [{"measurement": "binding result", "setting": "NACC1 BEN WT [1]", "value": "binds"}]}, {"molecule": "BANP crystal DNA (dsDNA) DNA 1: CATCTCGCGAGAT DNA 2: CATCTCGCGAGAT", "values": [{"measurement": "binding result", "setting": "BANP BEN WT [2]", "value": "binds"}]}, {"molecule": "12-mCGmCG (dsDNA, 5-methyl-C at positions 5 and 7 of each strand (fully methylated)) DNA 1: ATCTCGCGAGAT DNA 2: ATCTCGCGAGAT", "values": [{"measurement": "binding result", "setting": "BANP CC-BEN (ΔDBD)", "value": "no binding"}, {"measurement": "binding result", "setting": "BANP full-length WT", "value": "no binding"}, {"measurement": "binding result", "setting": "BANP ΔCC", "value": "no binding"}, {"measurement": "binding result", "setting": "BANP BEN-DBD", "value": "no binding"}]}, {"molecule": "12-AT (dsDNA) DNA 1: TTTTATATATAA DNA 2: TTATATATAAAA", "values": [{"measurement": "binding result", "setting": "BANP BEN WT [3]", "value": "no binding"}, {"measurement": "binding result", "setting": "NACC1 BEN WT [4]", "value": "no binding"}]}, {"molecule": "full-length BANP (natural protein, human, UniProt Q8N9N5 1-519, looked up, BANP, human, full length; also called SMAR1; source: E. coli Rosetta (DE3), purified (nickel column, HiTrap Q, gel filtration)) MMSEHDLADVVQIAVEDLSPDHPVVLENHVVTDEDEPALKRQRLEINCQDPSIKTICLRLDSIEAKLQALEATCKSLEEKLDLVTNKQHSPIQVPMVAGSPLGATQTCNKVRCVVPQTTVILNNDRQNAIVAKMEDPLSNRAPDSLENVISNAVPGRRQNTIVVKVPGQEDSHHEDGESGSEASDSVSSCGQAGSQSIGSNVTLITLNSEEDYPNGTWLGDENNPEMRVRCAIIPSDMLHISTNCRTAEKMALTLLDYLFHREVQAVSNLSGQGKHGKKQLDPLTIYGIRCHLFYKFGITESDWYRIKQSIDSKCRTAWRRKQRGQSLAVKSFSRRTPNSSSYCPSEPMMSTPPPASELPQPQPQPQALHYALANAQQVQIHQIGEDGQVQVGHLHIAQVPQGEQVQITQDSEGNLQIHHVGQDGQLLEATRIPCLLAPSVFKASSGQVLQGAQLIAVASSDPAAAGVDGSPLQGSDIQVQYVQLAPVSDHTAGAQTAEALQPTLQPEMQLEHGAIQIQ", "values": [{"measurement": "stoichiometry N", "setting": "[5]", "value": 4}]}]}
